In assay [1] the test system is rumen fluid. In words: in vitro ruminal fermentation, 13 muramidases, 12 h (Example 3). On the set-up: species or system cow. To be noted: PC at dosage 0.01 mg/40 mL. As to the method:
(§1) The trial was performed by Alimetrics (Alimetrics Ltd, Koskelontie 19B, FIN-02920 Espoo, Finland) using 120 mL serum bottles as fermentation vessels. The fermentation preparation and procedure is presented in Kettunen et al., (Kettunen H., J. Vuorenmaa, D. Gaffney and J. Apajalahti (2016): Yeast hydrolysate product enhances ruminal fermentation in vitro. J. App. Anim. Nutr., Vol. 4; e1; page 1 of 7). In short, the method is as follows: All bottles were initially filled with 1 g of feed DM composed from corn silage, barley meal, soybean meal, at the amounts of 0.5, 0.4, and 0.1 g DM, respectively. Subsequently, the bottles were flushed with CO2 passed through a hot copper catalyst for O2 scavenging and sealed with thick butyl rubber stopper. Anaerobic, reduced and temperature adjusted (+38° C.) artificial saliva buffer solution (Modified from Agriculture Handbook No. 379, (USDA, Washington, D.C., 1975), volume of 37.65 ml), freshly strained rumen fluid (5% inoculum; volume of 2 ml), and test compounds (volume of 0.35 ml) was introduced into the fermentation vessels under the oxygen-free CO2 flow. Following rumen fluid collection from a ruminal cannulated cow. Rumen fluid was pumped directly from the rumen into a preheated thermos and immediately closed, and transported to Alimetrics laboratory. The rumen fluid was used for inoculation within 2 hours of harvest. To ensure that both liquid and particle associated ruminal microbes were present in the inoculum both fractions were obtained. Liquid and solid fractions were strained through a metal mesh (grid size 3×3 mm) under anaerobic conditions prior to buffer dilution.
(§2) Following inoculation with rumen fluid, buffer and test solution the vessels were sealed with the butyl rubber septum's. All fermentation vessels were inoculated in random order to prevent the possible block effects. Inoculation time for each fermentation vessel was registered and was taken into account op on each sampling to ensure that duration of the fermentation was the same for each sample. The fermentation was continued for 12 h in a gyratory shaker at +38° C. Fermentation gas produced was measured and relived by collection of the fermentation gas in syringes at time 3, 6, 9, and 12 h. Feed residues were measured after 12 h fermentation.
The trial design was a dosage response, complete randomized design with 28 treatments using 150 fermentation vessels according to table 3. The 13 muramidase solutions were diluted to the concentration needed in enzyme buffer (BSA, Tween 20, acetate-buffer, Calcium, NaOH, adjusted to pH 6). Negative control was supplemented with the same buffer solution that was used for diluting the enzymes to reach the same liquid volume as the supplemented fermentation vessels. The ionophore Monensin (Monensin sodium salt, 90-95% TLC (Sigma Aldrich; Product code: M5273-1G)) was chosen as a positive control because it is a ruminants feed additive that affects volatile fatty acids (VFA) production.
Liquid samples obtained at 12 h were analyzed for the concentration of VFA (acetate, propionate, butyrate, and valerate) by GC-FID using a glass column packed with 80/120 carbopack B-DA/4% Carbowax stationary and helium as a carrier gas (Kettunen H., J. Vuorenmaa, T. Rinttilä, H. Grönberg, E. Valkonen and J. Apajalahti (2015): Natural resin acid-enriched composition as a modulator of intestinal microbiota and performance enhancer in broiler chicken. J. App. Anim. Nutr., Vol. 3; e2; page 1 of 9).
(§3) Digestibility of dry matter was quantified by determination of dry matter in the original feed matrix and in all fermentation vessels after 12 h of fermentation. Feed residues from the fermentation vessels were obtained by filtration tared sintered glass filters, washed with water and dried at 105° C. for 12 hours. Finally, the glass filters are weighed for the residual feed dry matter.
(§4) Dry matter digestibility (DMd) was calculated at the ratio between feed residues after end fermentation and the dry matter fed. […]

In assay [2] the test system is rumen fluid. In words: in vitro ruminal fermentation, 22 muramidases, 12 h (Example 4). On the set-up: species or system cow; DMd: unit not given here. The following applies: for Acetate / Butyrate / Propionate: VFA production after 12 h; for Total VFA: sum of VFA after 12 h; for Carbon in VFA: summed carbon in VFA after 12 h. As to the method:
as §1, with “was collected” for “collection”
as §2, with “solution,” for “solution”
The trial design was a dosage response, complete randomized design with 27 treatments using 145 fermentation vessels according to table 5. […] Negative control was supplemented with the same buffer solution that was used for diluting the enzymes to reach the same liquid volume as the supplemented fermentation vessels. The ionophore Monensin (Monensin sodium salt, 90-95% TLC (Sigma Aldrich; Product code: M5273-1G)) was chosen as a positive control because it is a ruminants feed additive that affects volatile fatty acids (VFA) production.
Liquid Samples Obtained at 12 h were Analyzed for the Concentration of VFA (Acetate, Propionate, butyrate, and valerate) by GC-FID using a glass column packed with 80/120 carbopack B-DA/4% Carbowax stationary and helium as a carrier gas (Kettunen H., J. Vuorenmaa, T. Rinttilä, H. Grönberg, E. Valkonen and J. Apajalahti (2015): Natural resin acid-enriched composition as a modulator of intestinal microbiota and performance enhancer in broiler chicken. J. App. Anim. Nutr., Vol. 3; e2; page 1 of 9).
as §3, §4

A further assay has as its system Staphylococcus aureus. To be noted: does not cleave N,6-O-diacetylmuramic acid in cell walls; Masschalck et al. 2002; cited from earlier work.
Setting [3] is: PC (Monensin) 0.01 or 0.10 mg/40 ml, not stated which.
Where [4] appears, read: dry matter digestibility after 12 h of ruminal fermentation in vitro, muramidase 0.20 mg/40 ml.

Data on six molecules can be found in US20210037856A1, “Ruminant Feed Composition Comprising A Muramidase” (Novozymes A/S, priority 2018, published 2021).

Structures can show the parent of a compound that is named as a salt.

With `CC[C@@]1([C@@H]2O[C@@H]([C@H]3O[C@@](O)(CO)[C@H](C)C[C@@H]3C)C[C@@H]2C)CC[C@H]([C@]2(C)CC[C@]3(C[C@H](O)[C@@H](C)[C@@H]([C@@H](C)[C@@H](OC)[C@H](C)C(=O)O)O3)O2)O1` [PC, Monensin sodium salt, reference compound], in the assay with rumen fluid [1] (VFA production after 12 h), the Acetate was 47.5 mmol/L, the Butyrate turned out to be 3.86 mmol/L and the Propionate came to 46.4 mmol/L. The DMd in the assay on rumen fluid [1] (dry matter digestibility after 12 h) is given as 0.55. Further, the “Total VFA” value in the assay on rumen fluid [1] (sum of VFA after 12 h) was 98 mmol/L. Besides, in the assay on rumen fluid [1] (summed carbon in VFA after 12 h), the “Carbon in VFA” value is reported as 251 mmol/L. For the same molecule, in the assay on rumen fluid [2] (setting [3]), the Acetate is recorded as 44.2 mmol/L, the Butyrate was 3.7 mmol/L, the Propionate is 42.8 mmol/L and the “Total VFA” value stood at 91 mmol/L. The “Carbon in VFA” value in the assay with rumen fluid [2] (setting [3]) worked out at 234 mmol/L. In the assay with rumen fluid [2] (dry matter digestibility after 12 h, PC (Monensin) 0.01 or 0.10 mg/40 ml, not stated which), this molecule registered a DMd of 0.51.
With “Muramidase extracted from hen egg white: GH22 muramidase from hen egg white, primary product available on the commercial market”, the “lysis of Staphylococcus aureus” value in the assay on Staphylococcus aureus is listed as “unable to lyse”.

B1: Y: mature muramidase polypeptide from Ovatospora brasiliensis, novel MUR polypeptide; Y in Example 4 (protein, listed as Ovatospora brasiliensis)
chain: YPVKADSLNCRSGPGTSYKVVKTYKKGADIKISCQTEGPSVNGDNLWIKTQDGCYVADYYVKTGTNGYVAKKCSSGGSTGGGSGGGKGNLPGLNAKQSSHARAIVAQAKKDGVGLHGCEAGIATALVESGIKVYANKKVPASLKYPHDAVGSDHDSIGIFQQRAVYYPNIAADMDPARSAHQFFAKMKGVSGWKTMAVGKLCQKVQVSAYPDRYAKRVSEATKICKAAGI
Turning to B1, in the assay on rumen fluid [2] (muramidase 0.20 mg/40 ml), the Acetate is 50.8 mmol/L, the Butyrate is 6.1 mmol/L, the Propionate turned out to be 43.1 mmol/L and the “Total VFA” value is reported as 100 mmol/L. Besides, the “Carbon in VFA” value in the assay with rumen fluid [2] (muramidase 0.20 mg/40 ml) turned out to be 258 mmol/L. Further, the DMd with rumen fluid [2] (setting [4]) is 0.57.

B2: W: mature muramidase polypeptide from Chaetomium sp., novel MUR polypeptide; W in Example 4 (protein)
chain: YPITGDPLNCRSGPGTSYAIKKSYTKGADIKISCQTEGTSVNGNSIWDKTQDGCYVADFYVKTGVDGYVTKKCSGGGGDTGGGSGGIPGPVKDDYPYKSSCGGVDPWNYYKCQCTSFVAWRINKRLGIKFHNQYKGTNWGNANTWDNAAKKTGVKVNSTPKPGAIAQSNAGNYGHVAWVTAVNGNKVTIEEYNWGKREGYGKRTVDKSAFNYIHVKA
modifications: Chaetomium sp
In the case of B2, in the assay on rumen fluid [2] (muramidase 0.20 mg/40 ml), the Acetate worked out at 48.9 mmol/L, the Butyrate was 6.7 mmol/L, the Propionate came to 40.9 mmol/L and the “Total VFA” value is recorded as 97 mmol/L. In the assay with rumen fluid [2] (muramidase 0.20 mg/40 ml), the “Carbon in VFA” value was 250 mmol/L. Besides, the DMd with rumen fluid [2] (setting [4]) was determined as 0.59.

B3: Z: mature muramidase polypeptide from Penicillium wellingtonense, novel MUR polypeptide; Z in Example 4 (protein)
chain: YPITGDVVNCRSGPGTTYDVVKSYKLNADVSITCQAPGTDVKGDSVWDKTADGCYVADYYVKTGSSSYVTTKCGGDDDGGDNDGGSSGNLPGLTSTQSKHAKDIIAEAKSEDLGRQGCLAGIATAIVESNILIYANSGVPESLKYPHDAVGSDHDSVGIFQQRAMFYKDIAADMDAGKSAGQFFGKMKAVSGWKSMDVGTLCQKVQGSAYPSRYAEQVSKAEKICKAGGL
modifications: Penicillium wellingtonense
Take B3: in the assay on rumen fluid [2] (muramidase 0.20 mg/40 ml), the Acetate was 48.7 mmol/L, the Butyrate came to 6.9 mmol/L, the Propionate is recorded as 39.6 mmol/L and the “Total VFA” value is reported as 96 mmol/L. For the same molecule, the “Carbon in VFA” value in the assay on rumen fluid [2] (muramidase 0.20 mg/40 ml) is 247 mmol/L. In the assay on rumen fluid [2] (setting [4]), this molecule registered a DMd of 0.56.

B4: V: mature muramidase polypeptide from Acremonium exiguum, novel MUR polypeptide; V in Example 4 (protein, listed as Acremonium exiguum)
chain: RSIPIVARAYPGLDDVQSRNAEAALGEIRAEGINPARQACLAVISTALQESELYIYANPAVPESMNYPHDREGGDQDSVGMFQQRPEWYPDIAADMSASGSTRQFLAAMLQVPGWQTMEVSALDQEVQKAEAGNLYGQRIPLATQVCDAAGF
For the molecule B4, in the assay on rumen fluid [2] (muramidase 0.20 mg/40 ml), the Acetate was 49.2 mmol/L, the Butyrate was found to be 7.1 mmol/L, the Propionate was found to be 40.6 mmol/L and the “Total VFA” value came out at 97 mmol/L. For the same molecule, the “Carbon in VFA” value in the assay on rumen fluid [2] (muramidase 0.20 mg/40 ml) is listed as 252 mmol/L. In the assay with rumen fluid [2] (setting [4]), this molecule returned a DMd of 0.59.
